Substitutions are numbered along the chain they refer to. In names and notes the source's numbering stands. Read-outs that look alike come from different tables or passages of the source.
T1: IL-2 receptor overexpressed on HEK-Blue IL-2 reporter cells (InvivoGen) (UniProt P01589 22-272; P14784 27-551; P31785 23-369, limits assumed)
T1 sequence (looked up) 1: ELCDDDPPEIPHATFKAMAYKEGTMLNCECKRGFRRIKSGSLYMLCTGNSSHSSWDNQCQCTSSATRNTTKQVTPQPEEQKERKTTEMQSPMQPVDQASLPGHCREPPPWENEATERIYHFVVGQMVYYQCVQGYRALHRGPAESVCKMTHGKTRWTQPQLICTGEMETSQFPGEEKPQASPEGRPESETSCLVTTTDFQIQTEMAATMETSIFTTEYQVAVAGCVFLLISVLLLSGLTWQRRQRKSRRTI
T1 sequence (looked up) 2: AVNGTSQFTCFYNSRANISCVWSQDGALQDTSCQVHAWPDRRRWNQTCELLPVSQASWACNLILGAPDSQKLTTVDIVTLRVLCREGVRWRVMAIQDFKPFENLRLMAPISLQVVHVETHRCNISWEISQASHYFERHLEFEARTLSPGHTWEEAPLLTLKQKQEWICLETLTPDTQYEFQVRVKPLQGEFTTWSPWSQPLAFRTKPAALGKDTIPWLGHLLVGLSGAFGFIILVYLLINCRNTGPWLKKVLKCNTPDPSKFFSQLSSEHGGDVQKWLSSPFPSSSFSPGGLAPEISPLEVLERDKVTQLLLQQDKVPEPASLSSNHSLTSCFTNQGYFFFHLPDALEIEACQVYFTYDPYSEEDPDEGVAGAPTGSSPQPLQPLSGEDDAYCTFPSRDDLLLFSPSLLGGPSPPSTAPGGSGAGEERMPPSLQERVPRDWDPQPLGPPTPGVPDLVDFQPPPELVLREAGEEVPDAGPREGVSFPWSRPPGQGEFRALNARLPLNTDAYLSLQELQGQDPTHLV
T1 sequence (looked up) 3: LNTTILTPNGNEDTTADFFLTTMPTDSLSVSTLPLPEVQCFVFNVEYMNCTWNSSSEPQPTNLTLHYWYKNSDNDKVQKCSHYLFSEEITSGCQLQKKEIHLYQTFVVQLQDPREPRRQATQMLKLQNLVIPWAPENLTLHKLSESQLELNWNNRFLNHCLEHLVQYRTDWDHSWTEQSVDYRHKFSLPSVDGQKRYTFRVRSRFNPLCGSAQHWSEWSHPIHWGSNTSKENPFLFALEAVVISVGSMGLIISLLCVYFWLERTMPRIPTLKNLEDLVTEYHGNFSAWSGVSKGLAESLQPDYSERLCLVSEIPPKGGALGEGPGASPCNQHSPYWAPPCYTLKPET

T2: Histidine-tagged CD25 (UniProt P01589 22-217, limits assumed)
T2 construct: Immobilized in Biolayer Interferometry (ForteBio); not shown: histidine tag
T2 sequence (looked up): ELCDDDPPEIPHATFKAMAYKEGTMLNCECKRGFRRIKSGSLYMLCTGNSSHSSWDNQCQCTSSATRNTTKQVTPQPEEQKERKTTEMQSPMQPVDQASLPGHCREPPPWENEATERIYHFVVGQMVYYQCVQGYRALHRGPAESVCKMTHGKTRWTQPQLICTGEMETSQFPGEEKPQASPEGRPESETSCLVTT

T3: heterotrimeric IL-2R (CD25, CD122 and CD132) on transiently transfected 293F cells (UniProt P01589 22-272; P14784 27-551; P31785 23-369, limits assumed)
T3 construct: whole, on cells
T3 sequence (looked up) 1: T1 sequence (looked up) 1
T3 sequence (looked up) 2: T1 sequence (looked up) 2
T3 sequence (looked up) 3: T1 sequence (looked up) 3

T4: CD122/CD132 (heterodimeric IL-2R) on transiently transfected 293F cells (UniProt P14784 27-551; P31785 23-369, limits assumed)
T4 construct: whole, on cells; also called CD122 and CD132
T4 sequence (looked up) 1: T1 sequence (looked up) 2
T4 sequence (looked up) 2: T1 sequence (looked up) 3

B1: polypeptide comprising modified IL-2 (T3A, H16A, E61R, P65R, D84S, C125S) fused to the C-terminus of a PD-1-binding VHH (other, not shown: a dimerising Fc or GST; small tags and cut ends)
chain: APASSSTKKTQLQLEALLLDLQMILNGINNYKNPKLTRMLTFKFYMPKKATELKHLQCLERELKRLEEVLNLAQSKNFHLRPRSLISNINVIVLELKGSETTFMCEYADETATIVEFLNRWITFSQSIISTLT
B2: polypeptide comprising modified IL-2 (T3A, H16A, F42R, P65R, D84S, C125S) fused to the C-terminus of a PD-1-binding VHH (other, not shown: a dimerising Fc or GST; small tags and cut ends)
chain: B1 chain with F42R, R61E
B3: polypeptide comprising modified IL-2 (T3A, H16A, K43E, P65R, D84S, C125S) fused to the C-terminus of a PD-1-binding VHH (other, not shown: a dimerising Fc or GST; small tags and cut ends)
chain: B1 chain with K43E, R61E
B4: polypeptide comprising modified IL-2 (T3A, H16A, K43E, Y45R, P65R, D84S, C125S) fused to the C-terminus of a PD-1-binding VHH (other, not shown: a dimerising Fc or GST; small tags and cut ends)
chain: B1 chain with K43E, Y45R, R61E
B5: polypeptide comprising modified IL-2 (T3A, H16A, P65R, D84S, C125S) fused to the C-terminus of a PD-1-binding VHH (other, not shown: a dimerising Fc or GST; small tags and cut ends)
chain: B1 chain with R61E
B6: polypeptide comprising modified IL-2 (T3A, H16A, P65R, D84S, I114F, C125S) fused to the C-terminus of a PD-1-binding VHH (other, not shown: a dimerising Fc or GST; small tags and cut ends)
chain: B1 chain with R61E, I114F
B7: polypeptide comprising modified IL-2 (T3A, H16A, R38A, P65R, D84S, C125S) fused to the C-terminus of a PD-1-binding VHH (other, not shown: a dimerising Fc or GST; small tags and cut ends)
chain: B1 chain with R38A, R61E
B8: polypeptide comprising modified IL-2 (T3A, H16A, E61R, P65R, D84Y, C125S) fused to the C-terminus of a CD8a-binding VHH (protein, part only; not given: CD8a-binding VHH and any linker or Fc, part only)
chain, part: B1 chain with S84Y
B9: polypeptide comprising modified IL-2 (T3A, H16A, Δ42, P65R, D84S, C125S) fused to the C-terminus of a PD-1-binding VHH (other, not shown: a dimerising Fc or GST; small tags and cut ends)
chain: APASSSTKKTQLQLEALLLDLQMILNGINNYKNPKLTRMLTKFYMPKKATELKHLQCLEEELKRLEEVLNLAQSKNFHLRPRSLISNINVIVLELKGSETTFMCEYADETATIVEFLNRWITFSQSIISTLT
notes: also called IL-2-T3A-H16A-ΔF42-P65R-D84S-C125S
B10: fusion protein comprising triple mutant IL-2 P65R-H16A-D84S (IL-2-RAS) fused to the N-terminus of the knob half of a heterodimeric Fc, paired with a hole Fc (Fc fusion)
chain 1: APTSSSTKKTQLQLEALLLDLQMILNGINNYKNPKLTRMLTFKFYMPKKATELKHLQCLEEELKRLEEVLNLAQSKNFHLRPRSLISNINVIVLELKGSETTFMCEYADETATIVEFLNRWITFCQSIISTLTPGGGGDKTHTCPPCPAPGGPSVFLFPPKPKDTLMISRTPEVTCVVVDVSHEDPEVKFNWYVDGVEVHNAKTKPREEQYNSTYRVVSVLTVLHQDWLNGKEYKCKVSNKALPAPIEKTISKAKGQPREPQVYTLPPCRDELTKNQVSLWCLVKGFYPSDIAVEWESNGQPENNYKTTPPVLDSDGSFFLYSKLTVDKSRWQQGNVFSCSVMHEALHNHYTQKSLSLSPGK
chain 2: KPGGGGDKTHTCPPCPAPGGPSVFLFPPKPKDTLMRSRTPEVTCVVVDVSHEDPEVKFNWYVDGVEVHNAKTKPREEQYNSTYRVVSVLTVLHQDWLNGKEYKCKVSNKALPAPIEKTISKAKGQPREPQVCTLPPSRDELTKNQVSLSCAVKGFYPSDIAVEWESNGQPENNYKTTPPVLDSDGSFFLVSKLTVDKSRWQQGNVFSCSVMHEALHNHYTQKSLSLSPGK
notes: also called IL-2-RAS-xELL knob Fc

Tests used:
[1] = target: trimeric IL-2 receptor on HEK-Blue IL-2 reporter cells (UniProt P01589); assay: cell-based or functional assay
[2] = target: IL-2 receptor together with PD-1 on HEK-Blue IL-2 reporter cells expressing PD-1 (UniProt P01589); assay: cell-based or functional assay
[3] = target: T1, IL-2 receptor overexpressed on HEK-Blue …; assay: cell-based or functional assay
Histidine-tagged CD25 = target: T2, Histidine-tagged CD25; assay: Biolayer Interferometry (ForteBio), immobilized His-tagged CD25
Method: Polypeptides comprising a modified IL-2 fused to the C-terminus of a PD-1 binding VHH and control polypeptides were tested for binding to CD25 using Biolayer Interferometry (ForteBio).

[4] = target: T5, PD-1 expressed on modified HEK-Blue IL-2 reporter cell clones (UniProt Q15116 25-288, limits assumed); assay: cell-based or functional assay
[5] = target: T5, PD-1 expressed on modified HEK-Blue …; assay: cell-based or functional assay; remark: listed apart in the source
[6] = target: T1, IL-2 receptor overexpressed on HEK-Blue …; assay: cell-based or functional assay; remark: listed apart in the source
[7] = target: T5, PD-1 expressed on modified HEK-Blue …; assay: cell-based or functional assay; remark: listed apart in the source
[8] = target: T1, IL-2 receptor overexpressed on HEK-Blue …; assay: cell-based or functional assay; remark: listed apart in the source
[9] = target: T5, PD-1 expressed on modified HEK-Blue …; assay: cell-based or functional assay; remark: listed apart in the source
[10] = target: T1, IL-2 receptor overexpressed on HEK-Blue …; assay: cell-based or functional assay; remark: listed apart in the source
[11] = target: T5, PD-1 expressed on modified HEK-Blue …; assay: cell-based or functional assay; remark: listed apart in the source
[12] = target: T1, IL-2 receptor overexpressed on HEK-Blue …; assay: cell-based or functional assay; remark: listed apart in the source
[13] = target: T5, PD-1 expressed on modified HEK-Blue …; assay: cell-based or functional assay; remark: listed apart in the source
[14] = target: T1, IL-2 receptor overexpressed on HEK-Blue …; assay: cell-based or functional assay; remark: listed apart in the source
[15] = target: T5, PD-1 expressed on modified HEK-Blue …; assay: cell-based or functional assay; remark: listed apart in the source
[16] = target: T1, IL-2 receptor overexpressed on HEK-Blue …; assay: cell-based or functional assay; remark: listed apart in the source
[17] = target: trimeric IL-2 receptor (CD25, CD122, CD132) on HEK-Blue IL-2 reporter cells (UniProt P01589); assay: cell-based or functional assay
[18] = target: T3, heterotrimeric IL-2R (CD25, CD122 and …); assay: flow cytometry on transiently transfected 293F cells
Method: (§1) Binding was analyzed by flow cytometry, substantially as follows. Cells were washed once in 200 μL of FACS buffer (PBS, 2% FBS, 0.05% sodium azide) and cell pellets were resuspended in 100 μl of a surface marker staining solution (containing A647-conjugated anti-human Fcg secondary antibody at 1:300 dilution in FACS buffer). Cells were incubated for 45 minutes at 4° C. before the final wash, and analyzed on a flow cytometer. Cellular debris was excluded by FSC/SSC size exclusion, and dead cells were excluded based on their positive propidium iodide signal. Single cells were selected using FSC-A/FSC-H doublet and aggregate exclusion. Transiently transfected cells also expressed cytoplasmic EGFP, and cells that were FL1 positive were analyzed. Increasing MFI levels of anti-human secondary antibody indicated IL-2 binding. FlowJo software was used for analysis of the cell populations. Raw mean fluorescence intensities (“MFI”) for each marker were then exported and analyzed using Excel and GraphPad PRISM. Values were graphed, and titration curves were fitted to assess a dose-response relationship using the non-linear regression One-site—Total curve fit.

[19] = target: T4, CD122/CD132 (heterodimeric IL-2R) on …; assay: as above
Method: as §1

T5 sequence (Q15116 25-288 limits assumed): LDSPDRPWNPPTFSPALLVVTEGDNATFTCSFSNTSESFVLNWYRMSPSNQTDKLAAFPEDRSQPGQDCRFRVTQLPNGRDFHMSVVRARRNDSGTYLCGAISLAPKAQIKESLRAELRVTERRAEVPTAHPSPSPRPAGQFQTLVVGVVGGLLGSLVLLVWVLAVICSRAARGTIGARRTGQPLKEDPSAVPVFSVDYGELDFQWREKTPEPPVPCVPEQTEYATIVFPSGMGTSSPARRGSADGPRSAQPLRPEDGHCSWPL
Chain of IL-2 receptor together with PD-1 on HEK-Blue IL-2 reporter cells expressing PD-1 (Q15116 25-288 limits assumed): as above

Binder | EC50 (nM), HEK-Blue IL-2 reporter cells lacking PD-1 [3] | binding result (Histidine-tagged CD25) | EC50 (nM), IL-2 reporter cells expressing PD-1 [4] | also measured
B1 | 3.2 nM | no binding (tested: 300 nM) | 0.002 nM | Non-targeted EC50 [1]: 3.18 nM; PD-1 Targeted EC50 [2]: 2 pM; PD-1 Window [2]: 1570
B2 | 2.1 nM | – | 0.003 nM | –
B3 | 1.1 nM | no binding (tested: 300 nM) | 0.001 nM | –
B4 | 1.5 nM | no binding (tested: 300 nM) | 0.002 nM | –
B5 | 0.9 nM | – | 0.001 nM | EC50 (nM), HEK-Blue IL-2 + PD-1 [5]: 0.003 nM; EC50 (nM), HEK-Blue IL-2 [6]: 0.3 nM; EC50 (nM), IL-2 reporter cells expressing PD-1 [7]: 0.001 nM; EC50 (nM), HEK-Blue IL-2 reporter cells lacking PD-1 [8]: 0.9 nM; EC50 (nM), HEK-Blue IL-2 + PD-1 [9]: 0.001 nM; EC50 (nM), HEK-Blue IL-2 [10]: 0.512 nM; EC50 (nM), HEK-Blue IL-2 + PD-1 [11]: 0.003 nM; EC50 (nM), HEK-Blue IL-2 [12]: 0.3 nM; EC50 (nM), HEK-Blue IL-2 + PD-1 [13]: 0.001 nM; EC50 (nM), HEK-Blue IL-2 [14]: 0.512 nM; EC50 (nM), HEK-Blue IL-2 + PD-1 [15]: 0.001 nM; EC50 (nM), HEK-Blue IL-2 [16]: 0.512 nM
B6 | 1.4 nM | no binding (tested: 300 nM) | 0.002 nM | –
B7 | 2 nM | no binding (tested: 300 nM) | 0.002 nM | Non-targeted EC50 [1]: 1.97 nM; PD-1 Targeted EC50 [2]: 2 pM; PD-1 Window [2]: 978
B8 | – | – | – | CD8a Targeted EC50, IL-2 reporter cells expressing CD8a (secreted alkaline phosphatase) [17]: 0.011 nM; Non-targeted EC50, HEK-Blue IL-2 reporter cells lacking PD-1, NKp46 and CD8a (secreted alkaline phosphatase) [17]: 4.51 nM
B9 | 4.2 nM | no binding (tested: 300 nM) | 0.005 nM | –
B10 | – | – | – | binding result [18]: binds; binding result [19]: binds

Reference: patent publication US20230235005A1 (INHIBRX, published 2023)
